The source of these data is the supplement of paper PMC9112550, “Optimization of the antimicrobial peptide Bac7 by deep mutational scanning” (BMC Biology, 2022).

This series concerns Escherichia coli TOP10. Kind of series: shrunken log2 fold change of peptide-encoding DNA abundance (4.5 h post-induction vs induction); higher = less antimicrobial activity (less host growth inhibition). To be noted: time post-induction: 4.5 h; library: site-saturation at positions 5, 18, 19, 20.
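Also: peptides expressed intracellularly from a pBAD plasmid library in pooled LB shake-flask culture, induced with 0.3% L-arabinose, DNA abundance read by NGS, three biological replicates, DESeq2 with apeglm shrinkage.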

Regarding RRIRTRPPRLPRPRPRPPRIPRP, the “shrunken log2 fold change” value came to 0.27.
The value for RRIRQRPPRLPRPRPRPINLPRP was -0.123.
As to RRIRDRPPRLPRPRPRPIDTPRP, the “shrunken log2 fold change” value was -0.3.
The value for RRIRCRPPRLPRPRPRPVWFPRP was 0.029.
Then RRIRARPPRLPRPRPRPLHWPRP, with 0.387; and RRIRMRPPRLPRPRPRPAVMPRP, with 0.782.
Then RRIRLRPPRLPRPRPRPLNRPRP, with -0.317; and RRIRHRPPRLPRPRPRPCTSPRP, with -0.0185.
For the sequence RRIRCRPPRLPRPRPRPTRRPRP, the “shrunken log2 fold change” value came out at 0.391.
The value for RRIRKRPPRLPRPRPRPGSRPRP was -0.171; that for RRIRVRPPRLPRPRPRPEMTPRP was 0.0232.
With RRIRSRPPRLPRPRPRPTFCPRP, the “shrunken log2 fold change” value came to 0.155.
The value for RRIRLRPPRLPRPRPRPCGGPRP was 0.091; that for RRIRFRPPRLPRPRPRPESKPRP was 0.183; that for RRIRFRPPRLPRPRPRPFWMPRP was -0.254.
Then RRIRMRPPRLPRPRPRPQAYPRP, with -0.0933; and RRIRHRPPRLPRPRPRPGNHPRP, with -0.161; and RRIRSRPPRLPRPRPRPWWHPRP, with -0.166.
Regarding RRIRTRPPRLPRPRPRPTHQPRP, the “shrunken log2 fold change” value amounted to 0.926.
Turning to RRIRFRPPRLPRPRPRPDQMPRP, the “shrunken log2 fold change” value is -0.155.
Then RRIRHRPPRLPRPRPRPMARPRP, with 0.0467; and RRIRARPPRLPRPRPRPLGYPRP, with 0.223; and RRIRYRPPRLPRPRPRPDIAPRP, with -0.0285.
As to RRIRKRPPRLPRPRPRPIPYPRP, the “shrunken log2 fold change” value is -0.303.
The value for RRIRIRPPRLPRPRPRPLYYPRP was -0.856; that for RRIRGRPPRLPRPRPRPIWVPRP was -0.0275.
As for RRIRARPPRLPRPRPRPWFVPRP, the “shrunken log2 fold change” value is -0.0746.
The value for RRIRTRPPRLPRPRPRPSSNPRP was -0.589; that for RRIRKRPPRLPRPRPRPYQSPRP was 0.000846.
Then RRIRDRPPRLPRPRPRPLACPRP, with 0.945; and RRIRERPPRLPRPRPRPKWKPRP, with -0.0193.
Take RRIRFRPPRLPRPRPRPPIYPRP: the “shrunken log2 fold change” value was -0.416.
Then RRIRDRPPRLPRPRPRPFQEPRP, with -0.137; and RRIRMRPPRLPRPRPRPRMSPRP, with 0.353.
Then RRIRFRPPRLPRPRPRPWWEPRP, with 0.0381; and RRIRFRPPRLPRPRPRPCCIPRP, with -0.313; and RRIRERPPRLPRPRPRPTQQPRP, with 0.0931.
With RRIRERPPRLPRPRPRPFEEPRP, the “shrunken log2 fold change” value is -0.217.
In the case of RRIRRRPPRLPRPRPRPAWNPRP, the “shrunken log2 fold change” value is 0.141.
For the sequence RRIRKRPPRLPRPRPRPCVNPRP, the “shrunken log2 fold change” value was 0.0687.
The value for RRIRIRPPRLPRPRPRPNMIPRP was -0.225.
Then RRIRMRPPRLPRPRPRPHRFPRP, with -0.0727; and RRIRRRPPRLPRPRPRPANQPRP, with 0.0564; and RRIRWRPPRLPRPRPRPKNDPRP, with 0.0313.
The value for RRIRSRPPRLPRPRPRPPYPPRP was 0.0516.
Regarding RRIRCRPPRLPRPRPRPHMGPRP, the “shrunken log2 fold change” value was -0.29.
Then RRIRGRPPRLPRPRPRPALYPRP, with 0.363; and RRIRMRPPRLPRPRPRPEDGPRP, with 2.85; and RRIRNRPPRLPRPRPRPGSEPRP, with -0.24.
The value for RRIRGRPPRLPRPRPRPEPAPRP was 1.69.
Then RRIRFRPPRLPRPRPRPFYHPRP, with -0.727; and RRIRDRPPRLPRPRPRPMELPRP, with 0.0119; and RRIRFRPPRLPRPRPRPGKCPRP, with -0.421.
As for RRIRVRPPRLPRPRPRPACIPRP, the “shrunken log2 fold change” value is -0.0537.
In the case of RRIRDRPPRLPRPRPRPCNVPRP, the “shrunken log2 fold change” value was found to be 0.0436.
Then RRIRPRPPRLPRPRPRPMKGPRP, with 0.15; and RRIRHRPPRLPRPRPRPFLNPRP, with -0.169.
Then RRIRTRPPRLPRPRPRPEGLPRP, with 0.0624; and RRIRERPPRLPRPRPRPCPKPRP, with -0.39.
Take RRIRSRPPRLPRPRPRPVHNPRP: the “shrunken log2 fold change” value came to 0.0673.
Turning to RRIRDRPPRLPRPRPRPNNHPRP, the “shrunken log2 fold change” value was -0.543.
The value for RRIRMRPPRLPRPRPRPPCLPRP was -0.157; that for RRIRQRPPRLPRPRPRPTRSPRP was 0.164.
The value for RRIRNRPPRLPRPRPRPNPVPRP was -0.139; that for RRIRSRPPRLPRPRPRPSVGPRP was 0.0671.
Then RRIRKRPPRLPRPRPRPNEYPRP, with 0.0869.
In the case of RRIRVRPPRLPRPRPRPFMCPRP, the “shrunken log2 fold change” value is -0.325.
Then RRIRERPPRLPRPRPRPWYWPRP, with 0.0516; and RRIRDRPPRLPRPRPRPRKFPRP, with -0.0848; and RRIRQRPPRLPRPRPRPTPAPRP, with 0.953.
For RRIRRRPPRLPRPRPRPKHSPRP, the “shrunken log2 fold change” value worked out at 0.0683.
The value for RRIRPRPPRLPRPRPRPWTIPRP was -0.117.
The value for RRIRYRPPRLPRPRPRPCLPPRP was -0.409.
The value for RRIRGRPPRLPRPRPRPAICPRP was 0.555; that for RRIRARPPRLPRPRPRPQQFPRP was 0.097; that for RRIRHRPPRLPRPRPRPPASPRP was 1.36.
RRIRLRPPRLPRPRPRPEYPPRP: the “shrunken log2 fold change” value was -0.336.
As for RRIRDRPPRLPRPRPRPRCVPRP, the “shrunken log2 fold change” value came out at 0.117.
The value for RRIRQRPPRLPRPRPRPIYLPRP was -0.163; that for RRIRQRPPRLPRPRPRPNAAPRP was 0.0416.
Then RRIRFRPPRLPRPRPRPLGCPRP, with 0.121; and RRIRDRPPRLPRPRPRPAKFPRP, with 0.0399.
Then RRIRARPPRLPRPRPRPCCDPRP, with 0.404; and RRIRMRPPRLPRPRPRPDWFPRP, with 0.235; and RRIRLRPPRLPRPRPRPSKIPRP, with -0.349.
For the sequence RRIRFRPPRLPRPRPRPPGCPRP, the “shrunken log2 fold change” value was 0.453.
The value for RRIRLRPPRLPRPRPRPSRCPRP was 0.05; that for RRIRVRPPRLPRPRPRPGQQPRP was 0.026; that for RRIRWRPPRLPRPRPRPYTRPRP was -0.774.
On to RRIRVRPPRLPRPRPRPYGDPRP, for which the “shrunken log2 fold change” value was -0.168.
The value for RRIRIRPPRLPRPRPRPDIQPRP was -0.37.
In the case of RRIRVRPPRLPRPRPRPACHPRP, the “shrunken log2 fold change” value was 0.0396.
With RRIRPRPPRLPRPRPRPLTNPRP, the “shrunken log2 fold change” value was -0.521.
The value for RRIRRRPPRLPRPRPRPKTNPRP was 0.221.
Then RRIRDRPPRLPRPRPRPKKQPRP, with 0.187.
The value for RRIRIRPPRLPRPRPRPEEMPRP was -0.416; that for RRIRYRPPRLPRPRPRPNCNPRP was -0.962.
As for RRIRDRPPRLPRPRPRPRERPRP, the “shrunken log2 fold change” value amounted to 0.352.
For the sequence RRIRWRPPRLPRPRPRPTQAPRP, the “shrunken log2 fold change” value came to 1.45.
Then RRIRDRPPRLPRPRPRPDVIPRP, with 0.00273.
Then RRIRFRPPRLPRPRPRPNEYPRP, with -0.16.
Then RRIRSRPPRLPRPRPRPYMLPRP, with -0.981.
On to RRIRMRPPRLPRPRPRPEQTPRP, for which the “shrunken log2 fold change” value was found to be 0.057.
Consider RRIRPRPPRLPRPRPRPDKPPRP, for which the “shrunken log2 fold change” value was -0.233.
Then RRIRMRPPRLPRPRPRPWVIPRP, with 0.0191.
The value for RRIRHRPPRLPRPRPRPHPLPRP was -0.0572; that for RRIRRRPPRLPRPRPRPWGGPRP was 0.53; that for RRIRCRPPRLPRPRPRPHEAPRP was -0.65.
The value for RRIRIRPPRLPRPRPRPVIKPRP was -0.918; that for RRIRKRPPRLPRPRPRPPWNPRP was 0.136.
Take RRIRSRPPRLPRPRPRPGCEPRP: the “shrunken log2 fold change” value is 0.145.
The value for RRIRQRPPRLPRPRPRPCDRPRP was -0.0449.
Take RRIRERPPRLPRPRPRPRMIPRP: the “shrunken log2 fold change” value was -0.0503.
The value for RRIRCRPPRLPRPRPRPRGVPRP was 0.69.
The value for RRIRHRPPRLPRPRPRPMKYPRP was -0.0485.
The value for RRIRQRPPRLPRPRPRPFWAPRP was 0.289.
With RRIRKRPPRLPRPRPRPSIGPRP, the “shrunken log2 fold change” value was -0.0755.
The value for RRIRPRPPRLPRPRPRPHHPPRP was -0.224; that for RRIRKRPPRLPRPRPRPYFWPRP was -0.0468; that for RRIRSRPPRLPRPRPRPPLCPRP was 0.357.
For the sequence RRIRRRPPRLPRPRPRPIKEPRP, the “shrunken log2 fold change” value was found to be 0.0124.
Then RRIRTRPPRLPRPRPRPNRCPRP, with -0.189.
Then RRIRPRPPRLPRPRPRPIAWPRP, with 0.266; and RRIRNRPPRLPRPRPRPVDHPRP, with -0.01; and RRIRKRPPRLPRPRPRPQNVPRP, with -0.0694.
